Measurements taken from patent EP4477673A1, “IMMUNOCONJUGATE AND USE THEREOF” (priority 2022, dated 2023).
Like-named read-outs stand apart in the source and are kept apart here.

T1: human IL-2Rβ/γ receptor heterodimer protein (Acrosystem, ILG-H5283) (human, UniProt P14784 27-239; P31785 23-262, limits assumed)
T1 sequence (looked up) 1: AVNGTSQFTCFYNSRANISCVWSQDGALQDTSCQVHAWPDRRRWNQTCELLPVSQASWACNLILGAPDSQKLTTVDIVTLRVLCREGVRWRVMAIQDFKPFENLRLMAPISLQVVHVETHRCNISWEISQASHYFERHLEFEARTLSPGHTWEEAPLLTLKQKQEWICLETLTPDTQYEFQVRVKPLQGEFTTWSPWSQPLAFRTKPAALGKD
T1 sequence (looked up) 2: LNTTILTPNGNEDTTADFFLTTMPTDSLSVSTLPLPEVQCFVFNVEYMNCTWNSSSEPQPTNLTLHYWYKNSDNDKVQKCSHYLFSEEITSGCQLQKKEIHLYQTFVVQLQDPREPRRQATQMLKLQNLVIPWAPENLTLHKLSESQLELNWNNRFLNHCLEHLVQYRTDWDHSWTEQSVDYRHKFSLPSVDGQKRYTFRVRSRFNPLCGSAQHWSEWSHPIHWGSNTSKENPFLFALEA

T2: IL-2Rβ/γ on M07e cells (human, UniProt P14784 27-551; P31785 23-369)
T2 sequence (looked up) 1: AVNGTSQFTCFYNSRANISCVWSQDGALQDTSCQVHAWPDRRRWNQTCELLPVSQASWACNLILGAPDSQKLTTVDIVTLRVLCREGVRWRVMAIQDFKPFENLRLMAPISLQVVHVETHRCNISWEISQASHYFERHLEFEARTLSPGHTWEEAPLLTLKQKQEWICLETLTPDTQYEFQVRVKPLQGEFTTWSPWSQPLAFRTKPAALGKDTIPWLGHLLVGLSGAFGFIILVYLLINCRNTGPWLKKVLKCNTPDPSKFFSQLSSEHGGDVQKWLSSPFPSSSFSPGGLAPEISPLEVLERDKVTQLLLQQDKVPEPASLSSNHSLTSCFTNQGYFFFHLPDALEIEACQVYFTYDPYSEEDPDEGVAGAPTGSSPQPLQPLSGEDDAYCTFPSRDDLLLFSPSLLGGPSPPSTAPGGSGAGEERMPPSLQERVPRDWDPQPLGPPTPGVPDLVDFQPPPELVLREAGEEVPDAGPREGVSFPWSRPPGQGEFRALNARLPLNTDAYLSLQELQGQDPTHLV
T2 sequence (looked up) 2: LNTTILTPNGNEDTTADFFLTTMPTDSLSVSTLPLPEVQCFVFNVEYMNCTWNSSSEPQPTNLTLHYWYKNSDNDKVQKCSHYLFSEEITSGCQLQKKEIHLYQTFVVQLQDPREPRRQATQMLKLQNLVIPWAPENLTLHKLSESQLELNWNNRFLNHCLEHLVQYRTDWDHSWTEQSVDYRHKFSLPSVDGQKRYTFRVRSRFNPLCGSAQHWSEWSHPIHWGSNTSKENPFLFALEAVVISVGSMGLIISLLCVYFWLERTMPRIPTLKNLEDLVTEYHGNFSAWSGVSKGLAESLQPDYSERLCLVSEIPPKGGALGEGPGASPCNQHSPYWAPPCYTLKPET

T3: human IL-2Rα receptor protein (Sino Biological, 10165-H08H) (human, UniProt P01589 22-213)
T3 construct: also called CD25
T3 sequence (looked up): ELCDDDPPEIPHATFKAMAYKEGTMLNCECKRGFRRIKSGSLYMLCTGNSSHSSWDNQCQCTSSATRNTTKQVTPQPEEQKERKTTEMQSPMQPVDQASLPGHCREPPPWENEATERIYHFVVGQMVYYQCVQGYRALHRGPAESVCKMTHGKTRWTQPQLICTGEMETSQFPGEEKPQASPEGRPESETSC


Key:
human PD-1 [1] = biological target: T4, human PD-1 (human, UniProt Q15116 25-288); assay: cell-based or functional assay
[2] = biological target: T5, Human PD-1 antigen protein (Sino Biological, 10377-H08H) (human, UniProt Q15116 25-167); assay: SPR Biacore 8K, antibody captured by anti-human IgG (Fc), PD-1 as analyte
[3] = biological target: T6, cynomolgus monkey PD-1 antigen protein (Sino Biological, 90311-C08H) (cynomolgus monkey, UniProt B0LAJ3 25-170); assay: SPR Biacore 8K, antibody captured by anti-human IgG (Fc), cynomolgus PD-1 as analyte
T6 construct: not shown: Tag of the vendor's construct (Sino Biological 90311-C08H, probably a C-terminal His tag)

[4] = biological target: T1, human IL-2Rβ/γ receptor heterodimer …; assay: SPR Biacore 8K, fusion protein captured by anti-human IgG (Fc), human IL-2Rβ/γ heterodimer as analyte
human PD-1 [5] = biological target: T4, human PD-1; assay: cell-based or functional assay; remark: listed apart in the source
human PD-1 [6] = biological target: T4, human PD-1; assay: cell-based or functional assay; remark: listed apart in the source
IL-2Rβ/γ on M07e cells = biological target: T2, IL-2Rβ/γ on M07e cells; assay: cell-based or functional assay
[7] = biological target: T5, Human PD-1 antigen protein (Sino …); assay: SPR Biacore 8K, fusion protein captured by anti-human IgG (Fc), human PD-1 as analyte
human PD-1 [8] = biological target: T4, human PD-1; assay: cell-based or functional assay; remark: listed apart in the source
[9] = biological target: T3, human IL-2Rα receptor protein (Sino …); assay: SPR Biacore 8K, fusion protein captured by anti-human IgG (Fc), IL-2Rα as analyte
[10] = biological target: T1, human IL-2Rβ/γ receptor heterodimer …; assay: SPR Biacore 8K; affinity for human IL-2Rβ/γ against A-PC

T4 sequence (Q15116 25-288 limits assumed): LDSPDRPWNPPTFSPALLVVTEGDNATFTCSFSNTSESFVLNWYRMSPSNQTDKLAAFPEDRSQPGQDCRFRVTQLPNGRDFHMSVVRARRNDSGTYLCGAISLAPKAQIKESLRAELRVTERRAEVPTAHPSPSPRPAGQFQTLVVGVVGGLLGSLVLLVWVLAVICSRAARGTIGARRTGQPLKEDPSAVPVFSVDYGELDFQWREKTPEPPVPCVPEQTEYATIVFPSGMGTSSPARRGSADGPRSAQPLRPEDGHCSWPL
T6 sequence (B0LAJ3 entry or part of it C08H C08H limits assumed, form in doubt): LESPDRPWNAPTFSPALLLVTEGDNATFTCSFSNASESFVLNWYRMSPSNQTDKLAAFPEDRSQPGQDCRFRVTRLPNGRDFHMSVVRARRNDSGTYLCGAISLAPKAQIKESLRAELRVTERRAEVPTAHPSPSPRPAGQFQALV
T5 sequence (Q15116 25-167 limits assumed): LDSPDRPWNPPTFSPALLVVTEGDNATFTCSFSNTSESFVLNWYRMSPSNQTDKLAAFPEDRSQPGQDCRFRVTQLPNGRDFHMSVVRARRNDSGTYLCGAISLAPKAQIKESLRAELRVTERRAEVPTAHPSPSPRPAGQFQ

| Kd [4] [nM] | koff [4] [s⁻¹] | kon [4] [M⁻¹ s⁻¹] | M07e-hPD-1 cell proliferation ratio (%) at 0.0001 nM (human PD-1 [5]) [%] | M07e-hPD-1 cell proliferation ratio (%) at 0.001 nM (human PD-1 [5]) [%] | M07e-hPD-1 cell proliferation ratio (%) at 0.01 nM (human PD-1 [5]) [%] | M07e-hPD-1 cell proliferation ratio (%) at 0.1 nM (human PD-1 [5]) [%] | M07e-hPD-1 cell proliferation ratio (%) at 1 nM (human PD-1 [5]) [%] | M07e-hPD-1 cell proliferation ratio (%) at 10 nM (human PD-1 [5]) [%] | M07e-hPD-1 cell proliferation ratio (%) at 100 nM (human PD-1 [5]) [%] | M07e-hPD-1 cell proliferation ratio (%) at 1000 nM (human PD-1 [5]) [%] | M07e-hPD-1 cell proliferation activity (%) at 0.0001 nM (human PD-1 [6]) [%] | M07e-hPD-1 cell proliferation activity (%) at 0.001 nM (human PD-1 [6]) [%] | M07e-hPD-1 cell proliferation activity (%) at 0.01 nM (human PD-1 [6]) [%] | M07e-hPD-1 cell proliferation activity (%) at 0.1 nM (human PD-1 [6]) [%] | M07e-hPD-1 cell proliferation activity (%) at 1 nM (human PD-1 [6]) [%] | M07e-hPD-1 cell proliferation activity (%) at 10 nM (human PD-1 [6]) [%] | M07e-hPD-1 cell proliferation activity (%) at 100 nM (human PD-1 [6]) [%] | M07e-hPD-1 cell proliferation activity (%) at 1000 nM (human PD-1 [6]) [%] | M07e cell proliferation activity (%) at 0.46 nM (IL-2Rβ/γ on M07e cells) [%] | Binder | other results |
| --- | --- | --- | --- | --- | --- | --- | --- | --- | --- | --- | --- | --- | --- | --- | --- | --- | --- | --- | --- | --- | --- |
|  |  |  |  |  |  |  |  |  |  |  |  |  |  |  |  |  |  |  |  | A17m0902_hIgG4 (antibody, V domains shown, VHH-Fc antibody; not shown: human IgG4 Fc with hinge region and S228P (EU)) VH: EVQLVESGGGLVQPGGSLRLSCAASGLTFSDYSMSWYRQAPGKGRELVAIISGSGVITHYVDSVKGRFTISRDNAKNTLYLQMRSLRAEDTAVYYCRAVSDWEDYWGQGTQVTVSS | IC50, PD-1/PD-L1 NFAT reporter gene system (human PD-1 [1]): 0.435 nM; Kd [2]: 6.09 nM; koff [2]: 0.00177 s⁻¹; kon [2]: 291000 M⁻¹ s⁻¹; Kd [3]: 3.28 nM; koff [3]: 0.00108 s⁻¹; kon [3]: 328000 M⁻¹ s⁻¹ |
| 3.38 | 0.000215 | 63700 | 0.8 | 0 | 4.8 | 18.3 | 21.3 | 25.2 | 31.1 | 45.5 | 2.8 | 3.3 | 18.1 | 32.1 | 41.8 | 45 | 61.1 | 66.9 | -1.7 | A-N88D (Fc fusion, also called PD-1-IL-2v (N88D); not shown: IgG1 hinge (C220S) + Fc Knob chain (L234A, L235A, S354C, T366W, EU); D356/L358 or E356/M358 ver; IgG1 hinge (C220S) + Fc Hole chain (L234A, L235A, Y349C, T366S, L368A, Y407V; may have H435R, Y436F; EU)) chain (part 1 of 2): EVQLVESGGGLVQPGGSLRLSCAASGLTFSDYSMSWYRQAPGKGRELVAIISGSGVITHYVDSVKGRFTISRDNAKNTLYLQMRSLRAEDTAVYYCRAVSDWEDYWGQGTQVTVSS chain (part 2 of 2): GGGGSGGGGSGGGGSAPASSSTKKTQLQLEHLLLDLQMILQGISNYKNPKLTRMLTAKFYMPKKATELKHLQCLEEELKPLEEVLQGAQSKNFHLRPRDLISDINVIVLELKGSETTFMCEYADETATIVEFLNRWITFAQSIISTLT EVQLVESGGGLVQPGGSLRLSCAASGLTFSDYSMSWYRQAPGKGRELVAIISGSGVITHYVDSVKGRFTISRDNAKNTLYLQMRSLRAEDTAVYYCRAVSDWEDYWGQGTQVTVSS | M07e cell proliferation activity (%) at 1.4 nM (IL-2Rβ/γ on M07e cells): -1.1%; M07e cell proliferation activity (%) at 4.1 nM (IL-2Rβ/γ on M07e cells): -1.5%; M07e cell proliferation activity (%) at 12 nM (IL-2Rβ/γ on M07e cells): -1.9%; M07e cell proliferation activity (%) at 37 nM (IL-2Rβ/γ on M07e cells): -2.8%; M07e cell proliferation activity (%) at 111 nM (IL-2Rβ/γ on M07e cells): -1.8%; M07e cell proliferation activity (%) at 333 nM (IL-2Rβ/γ on M07e cells): 0.2%; M07e cell proliferation activity (%) at 1000 nM (IL-2Rβ/γ on M07e cells): 14.6%; Kd [7]: 17.6 nM; koff [7]: 0.00175 s⁻¹; kon [7]: 99800 M⁻¹ s⁻¹; M07e-hPD-1 cell proliferation ratio (%) at 0.0001 nM (human PD-1 [8]): 5.2%; M07e-hPD-1 cell proliferation ratio (%) at 0.001 nM (human PD-1 [8]): 4.4%; M07e-hPD-1 cell proliferation ratio (%) at 0.01 nM (human PD-1 [8]): 13.4%; M07e-hPD-1 cell proliferation ratio (%) at 0.1 nM (human PD-1 [8]): 30.8%; M07e-hPD-1 cell proliferation ratio (%) at 1 nM (human PD-1 [8]): 36%; M07e-hPD-1 cell proliferation ratio (%) at 10 nM (human PD-1 [8]): 35.5%; M07e-hPD-1 cell proliferation ratio (%) at 100 nM (human PD-1 [8]): 41.1%; M07e-hPD-1 cell proliferation ratio (%) at 1000 nM (human PD-1 [8]): 55.4%; binding result [9]: no binding; fold lower affinity than A-PC [10]: ~13 fold |
| 16 | 0.000681 | 42700 | 0.6 | -0.3 | 2.6 | 8.4 | 10.8 | 10.8 | 13.5 | 15.4 | 2.3 | 2.9 | 11.4 | 24.2 | 28.5 | 30.2 | 32 | 39.2 | -3 | A-D20A (Fc fusion, also called PD-1-IL-2v (D20A); not shown: IgG1 hinge (C220S) + Fc Knob chain (L234A, L235A, S354C, T366W, EU); D356/L358 or E356/M358 ver; IgG1 hinge (C220S) + Fc Hole chain (L234A, L235A, Y349C, T366S, L368A, Y407V; may have H435R, Y436F; EU)) chain (part 1 of 2): EVQLVESGGGLVQPGGSLRLSCAASGLTFSDYSMSWYRQAPGKGRELVAIISGSGVITHYVDSVKGRFTISRDNAKNTLYLQMRSLRAEDTAVYYCRAVSDWEDYWGQGTQVTVSS chain (part 2 of 2): GGGGSGGGGSGGGGSAPASSSTKKTQLQLEHLLLALQMILQGISNYKNPKLTRMLTAKFYMPKKATELKHLQCLEEELKPLEEVLQGAQSKNFHLRPRDLISNINVIVLELKGSETTFMCEYADETATIVEFLNRWITFAQSIISTLT EVQLVESGGGLVQPGGSLRLSCAASGLTFSDYSMSWYRQAPGKGRELVAIISGSGVITHYVDSVKGRFTISRDNAKNTLYLQMRSLRAEDTAVYYCRAVSDWEDYWGQGTQVTVSS | M07e cell proliferation activity (%) at 1.4 nM (IL-2Rβ/γ on M07e cells): -2.6%; M07e cell proliferation activity (%) at 4.1 nM (IL-2Rβ/γ on M07e cells): -1.6%; M07e cell proliferation activity (%) at 12 nM (IL-2Rβ/γ on M07e cells): -3%; M07e cell proliferation activity (%) at 37 nM (IL-2Rβ/γ on M07e cells): -3.7%; M07e cell proliferation activity (%) at 111 nM (IL-2Rβ/γ on M07e cells): -2.4%; M07e cell proliferation activity (%) at 333 nM (IL-2Rβ/γ on M07e cells): -1.9%; M07e cell proliferation activity (%) at 1000 nM (IL-2Rβ/γ on M07e cells): 0.6%; Kd [7]: 18.5 nM; koff [7]: 0.00168 s⁻¹; kon [7]: 90600 M⁻¹ s⁻¹; binding result [9]: no binding; fold lower affinity than A-PC [10]: ~63 fold |
